These are literature values, as cited in article PMC8262464.

The target in this series is TLR2 (Homo sapiens) (UniProt O60603). As to the kind of experiment: SPR.
UniProt O60603, sequence (O60603 21-588): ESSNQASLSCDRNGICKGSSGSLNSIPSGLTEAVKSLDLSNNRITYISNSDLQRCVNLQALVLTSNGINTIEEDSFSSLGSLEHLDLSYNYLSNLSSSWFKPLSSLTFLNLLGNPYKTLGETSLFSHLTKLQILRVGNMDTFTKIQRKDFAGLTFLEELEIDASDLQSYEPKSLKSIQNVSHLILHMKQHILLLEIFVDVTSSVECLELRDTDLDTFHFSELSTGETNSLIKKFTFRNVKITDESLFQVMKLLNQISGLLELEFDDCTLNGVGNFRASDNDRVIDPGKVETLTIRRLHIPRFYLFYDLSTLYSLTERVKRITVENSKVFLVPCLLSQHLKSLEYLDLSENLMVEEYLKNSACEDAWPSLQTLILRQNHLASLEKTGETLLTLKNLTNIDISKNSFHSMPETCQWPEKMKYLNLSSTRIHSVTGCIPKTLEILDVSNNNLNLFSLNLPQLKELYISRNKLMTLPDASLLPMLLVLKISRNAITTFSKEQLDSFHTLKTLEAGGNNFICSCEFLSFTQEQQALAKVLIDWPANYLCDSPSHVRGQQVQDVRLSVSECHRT

Turning to MMP2 (from UniProt P08253), the Kd (as a rule, the free concentration of one partner at which half of the binding sites on the other are occupied at equilibrium, for simple one-to-one binding) is 32.2 nM.
